The values below come from patent publication US20080009025A1, “PROTEIN KINASE REGULATION” (priority 1999, published 2008).

In one data set the target is T1, GST-PDK1 (Homo sapiens, UniProt O15530).
T1 construct: Full length PDK1 (residues 1-556); made in house; host or cells: 293 cells
T1 sequence (O15530 1-556): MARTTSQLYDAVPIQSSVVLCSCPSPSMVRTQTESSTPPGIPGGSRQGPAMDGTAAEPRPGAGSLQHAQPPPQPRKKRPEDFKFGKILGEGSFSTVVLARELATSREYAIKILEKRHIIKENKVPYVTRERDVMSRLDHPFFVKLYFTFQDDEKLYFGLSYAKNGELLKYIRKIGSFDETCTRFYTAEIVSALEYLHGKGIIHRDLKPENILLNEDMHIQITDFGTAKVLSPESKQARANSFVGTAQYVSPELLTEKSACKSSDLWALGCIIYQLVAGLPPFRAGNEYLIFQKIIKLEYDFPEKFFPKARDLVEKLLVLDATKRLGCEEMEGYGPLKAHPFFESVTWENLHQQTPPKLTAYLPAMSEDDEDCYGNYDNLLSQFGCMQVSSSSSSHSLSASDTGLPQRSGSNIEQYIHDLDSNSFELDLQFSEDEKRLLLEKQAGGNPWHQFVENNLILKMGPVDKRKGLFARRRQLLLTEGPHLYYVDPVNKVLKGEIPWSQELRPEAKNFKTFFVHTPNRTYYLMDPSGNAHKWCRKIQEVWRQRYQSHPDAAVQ
Description: Thermal denaturation of PDK1 (TM50). Conditions: heated 2 min; no PIFtide. It counts as biochemical. An excerpt: A further aspect of the invention provides the use of an interacting polypeptide as defined above, for example comprising the amino acid sequence Phe/Tyr-Xaa-Xaa-Phe/Tyr or an interacting compound of the invention in a method of stabilising a protein kinase having a hydrophobic pocket in the position equivalent to the hydrophobic pocket of Protein Kinase A (PKA) that is defined by residues including Lys76, Leu116, Val80 and/or Lys111 of full-length mouse PKA, wherein the protein kinase is exposed to the compound or polypeptide. Stabilisation may be measured by measuring the TM50 value. The TM50 value is the temperature at which heating for two minutes produces a 50% reduction in protein kinase activity (measured using any appropriate substrate) compared with the protein kinase activity before such heating, as described in Example 2. An increase in the TM50 value, for example by at least about 1, 2, 3, 4, 5, 6, 7, 8, 9, 10 or 15° C. indicates stabilisation.
FIG. 12. PDK1 is activated and stabilised through its interaction with PIFtide. (A) GST-PDK1 activity was measured in the presence of increasing concentrations of wild type (wt) PIFtide (closed circles) or a mutant D978A PIFtide (open circles) using the synthetic peptide substrate termed T308tide, as described in Material and Methods. The data was fitted to a hyperbola using the Kaleidagraph™ software. […]

The test system of the next data set is S6K1[412E]. Description: Activation of S6K1[412E] by PDK1 PIF pocket mutants. It counts as biochemical, human. As to the method:
(§1) FIG. 20. Effect of PIFtide on the activation of S6K1 and SGK1 by PDK1 PIF pocket mutants (155A, 115A, 119A, 150A). GST-PDK1, GST-PDK1 L155E, 155A, 115A, 119A and 150A were tested for their ability to activate His-S6K1 412E and GST-SGK1 422D. The phosphorylation and activation of substrates was performed as described in FIG. 17. When PIFtide was included in the reaction, it was pre-incubated on ice for ˜15 min until the reaction was initiated with the addition of ATP-Mg.
(§2) Activation of AGC kinase PDK1 substrates. Phosphorylation reactions were carried out as above except that non-radioactive ATP replaced [γ-^32P]ATP. Following 10 min at 30° C., cocktail (30 μl) containing 50 mM Tris-HCl pH 7.5, 0.1% (by vol) 2-mercaptoethanol, 10 mM magnesium chloride, […], 0.5 μM microcystin-LR and 100 μM peptide substrate crosstide (GRPRTSSFAEG) and [γ-^32P]ATP (˜600 c.p.m./pmol). Reactions were stopped by the addition of 25 μl of 0.2 M EDTA pH 8.0, spotted onto P81 phosphocellulose paper, washed and analysed as described for the assay of MAP kinase. The amount of PDK1 was in the assay was varied so that the assay was in the linear range. One unit of activity is deficed as phosphorylation 1 nmol of substrate in 1 min.

Another data set relates to SGK1[T422D]. The experiment in a line: Activation of SGK1[T422D] by PDK1 PIF pocket mutants. It counts as biochemical. As for the experimental part: as §1, §2

B1: L155D: PDK1 mutant, Leu155 to Asp (protein)
chain: MARTTSQLYDAVPIQSSVVLCSCPSPSMVRTQTESSTPPGIPGGSRQGPAMDGTAAEPRPGAGSLQHAQPPPQPRKKRPEDFKFGKILGEGSFSTVVLARELATSREYAIKILEKRHIIKENKVPYVTRERDVMSRLDHPFFVKLYFTFQDDEKDYFGLSYAKNGELLKYIRKIGSFDETCTRFYTAEIVSALEYLHGKGIIHRDLKPENILLNEDMHIQITDFGTAKVLSPESKQARANSFVGTAQYVSPELLTEKSACKSSDLWALGCIIYQLVAGLPPFRAGNEYLIFQKIIKLEYDFPEKFFPKARDLVEKLLVLDATKRLGCEEMEGYGPLKAHPFFESVTWENLHQQTPPKLTAYLPAMSEDDEDCYGNYDNLLSQFGCMQVSSSSSSHSLSASDTGLPQRSGSNIEQYIHDLDSNSFELDLQFSEDEKRLLLEKQAGGNPWHQFVENNLILKMGPVDKRKGLFARRRQLLLTEGPHLYYVDPVNKVLKGEIPWSQELRPEAKNFKTFFVHTPNRTYYLMDPSGNAHKWCRKIQEVWRQRYQSHPDAAVQ
modifications: left off: small tags and cut ends
notes: PDK1 mutant, Leu155 to Asp
With B1, the TM50 value in the data set with GST-PDK1 was determined as 42 °C.

B2: Q150A: PDK1 mutant, Gln150 to Ala (protein)
chain: MARTTSQLYDAVPIQSSVVLCSCPSPSMVRTQTESSTPPGIPGGSRQGPAMDGTAAEPRPGAGSLQHAQPPPQPRKKRPEDFKFGKILGEGSFSTVVLARELATSREYAIKILEKRHIIKENKVPYVTRERDVMSRLDHPFFVKLYFTFADDEKLYFGLSYAKNGELLKYIRKIGSFDETCTRFYTAEIVSALEYLHGKGIIHRDLKPENILLNEDMHIQITDFGTAKVLSPESKQARANSFVGTAQYVSPELLTEKSACKSSDLWALGCIIYQLVAGLPPFRAGNEYLIFQKIIKLEYDFPEKFFPKARDLVEKLLVLDATKRLGCEEMEGYGPLKAHPFFESVTWENLHQQTPPKLTAYLPAMSEDDEDCYGNYDNLLSQFGCMQVSSSSSSHSLSASDTGLPQRSGSNIEQYIHDLDSNSFELDLQFSEDEKRLLLEKQAGGNPWHQFVENNLILKMGPVDKRKGLFARRRQLLLTEGPHLYYVDPVNKVLKGEIPWSQELRPEAKNFKTFFVHTPNRTYYLMDPSGNAHKWCRKIQEVWRQRYQSHPDAAVQ
modifications: left off: small tags and cut ends
notes: PDK1 mutant, Gln150 to Ala
Consider B2, for which the “rate of activation of S6K1[412E] compared with wild type PDK1” value in the data set with S6K1[412E] is “only marginally lower”. For the same molecule, in the data set with SGK1[T422D], the “rate of activation of SGK1[T422D] compared with wild type PDK1” value was “markedly reduced”.

B3: L155A: PDK1 mutant, Leu155 to Ala (protein)
chain: MARTTSQLYDAVPIQSSVVLCSCPSPSMVRTQTESSTPPGIPGGSRQGPAMDGTAAEPRPGAGSLQHAQPPPQPRKKRPEDFKFGKILGEGSFSTVVLARELATSREYAIKILEKRHIIKENKVPYVTRERDVMSRLDHPFFVKLYFTFQDDEKAYFGLSYAKNGELLKYIRKIGSFDETCTRFYTAEIVSALEYLHGKGIIHRDLKPENILLNEDMHIQITDFGTAKVLSPESKQARANSFVGTAQYVSPELLTEKSACKSSDLWALGCIIYQLVAGLPPFRAGNEYLIFQKIIKLEYDFPEKFFPKARDLVEKLLVLDATKRLGCEEMEGYGPLKAHPFFESVTWENLHQQTPPKLTAYLPAMSEDDEDCYGNYDNLLSQFGCMQVSSSSSSHSLSASDTGLPQRSGSNIEQYIHDLDSNSFELDLQFSEDEKRLLLEKQAGGNPWHQFVENNLILKMGPVDKRKGLFARRRQLLLTEGPHLYYVDPVNKVLKGEIPWSQELRPEAKNFKTFFVHTPNRTYYLMDPSGNAHKWCRKIQEVWRQRYQSHPDAAVQ
modifications: left off: a dimerising Fc or GST; small tags and cut ends
notes: PDK1 mutant, Leu155 to Ala
On to B3, for which the “rate of activation of S6K1[412E] compared with wild type PDK1” value in the data set on S6K1[412E] is given as “only marginally lower”. Further, the “rate of activation of SGK1[T422D] compared with wild type PDK1” value in the data set on SGK1[T422D] was “markedly reduced”.

B4: K115A: PDK1 mutant, Lys115 to Ala in the PIF-binding pocket (protein)
chain: MARTTSQLYDAVPIQSSVVLCSCPSPSMVRTQTESSTPPGIPGGSRQGPAMDGTAAEPRPGAGSLQHAQPPPQPRKKRPEDFKFGKILGEGSFSTVVLARELATSREYAIKILEARHIIKENKVPYVTRERDVMSRLDHPFFVKLYFTFQDDEKLYFGLSYAKNGELLKYIRKIGSFDETCTRFYTAEIVSALEYLHGKGIIHRDLKPENILLNEDMHIQITDFGTAKVLSPESKQARANSFVGTAQYVSPELLTEKSACKSSDLWALGCIIYQLVAGLPPFRAGNEYLIFQKIIKLEYDFPEKFFPKARDLVEKLLVLDATKRLGCEEMEGYGPLKAHPFFESVTWENLHQQTPPKLTAYLPAMSEDDEDCYGNYDNLLSQFGCMQVSSSSSSHSLSASDTGLPQRSGSNIEQYIHDLDSNSFELDLQFSEDEKRLLLEKQAGGNPWHQFVENNLILKMGPVDKRKGLFARRRQLLLTEGPHLYYVDPVNKVLKGEIPWSQELRPEAKNFKTFFVHTPNRTYYLMDPSGNAHKWCRKIQEVWRQRYQSHPDAAVQ
modifications: left off: small tags and cut ends
For the molecule B4, the “rate of activation of S6K1[412E] compared with wild type PDK1” value in the data set with S6K1[412E] was “only marginally lower”. In addition, the “rate of activation of SGK1[T422D] compared with wild type PDK1” value in the data set on SGK1[T422D] is recorded as “markedly reduced”.

B5: I119A: PDK1 mutant, Ile119 to Ala (protein)
chain: MARTTSQLYDAVPIQSSVVLCSCPSPSMVRTQTESSTPPGIPGGSRQGPAMDGTAAEPRPGAGSLQHAQPPPQPRKKRPEDFKFGKILGEGSFSTVVLARELATSREYAIKILEKRHIAKENKVPYVTRERDVMSRLDHPFFVKLYFTFQDDEKLYFGLSYAKNGELLKYIRKIGSFDETCTRFYTAEIVSALEYLHGKGIIHRDLKPENILLNEDMHIQITDFGTAKVLSPESKQARANSFVGTAQYVSPELLTEKSACKSSDLWALGCIIYQLVAGLPPFRAGNEYLIFQKIIKLEYDFPEKFFPKARDLVEKLLVLDATKRLGCEEMEGYGPLKAHPFFESVTWENLHQQTPPKLTAYLPAMSEDDEDCYGNYDNLLSQFGCMQVSSSSSSHSLSASDTGLPQRSGSNIEQYIHDLDSNSFELDLQFSEDEKRLLLEKQAGGNPWHQFVENNLILKMGPVDKRKGLFARRRQLLLTEGPHLYYVDPVNKVLKGEIPWSQELRPEAKNFKTFFVHTPNRTYYLMDPSGNAHKWCRKIQEVWRQRYQSHPDAAVQ
modifications: left off: small tags and cut ends
notes: PDK1 mutant, Ile119 to Ala
Turning to B5, the “rate of activation of S6K1[412E] compared with wild type PDK1” value in the data set with S6K1[412E] was “only marginally lower”. The “rate of activation of SGK1[T422D] compared with wild type PDK1” value with SGK1[T422D] was “markedly reduced”.
